Measured values as given in US20050196753.

System: recombinant Histone H3

In the case of “human coactivator-associated arginine methyltransferase 1 (hCARM1), full-length, purified from baculovirus infected insect cells”, the “methylation of Histone H3 (in vitro methylation assay, SDS-PAGE and film)” value is reported as “hCARM1 methylates Histone H3 efficiently”.
